Assay: soluble on expression in E. coli; label from the status in PepcDB or PDB records

Sequence	soluble on expression in E. coli
MGHHHHHHSSGLVPRGSATERQDRNLLYEHAREGYSALPLLDMESLCAYPEDAARALDLRKGELRSKDLPGIISTWQELRQLREQIRSLEEEKEAVTEAVRALVVNQDNSQVQQDPQYQSLRARGREIRKQLTLLYPKEAQLEEQFYLRALRLPNQTHPDVPVGDESQARVLHVVGDKPAFSFQPRGHLEIAEKLDIIRQKRLSHVSGHRSYYLRGAGALLQHGLVNFTLNKLIHRGFTPMTVPDLLRGVVFEGCGMTPNAKPSQIYNIDPSRFEDLNLAGTAEVGLAGYFMDHSVAFRDLPIRMVCSSTCYRAETDTGKEPWGLYRVHHFTKVEMFGVTGPGLEQSSELLEEFLSLQMEILTELGLHFRVLDMPTQELGLPAYRKFDIEAWMPGRGRFGEVTSASNCTDFQSRRLHIMFQTEAGELQFAHTVNATGCAVPRLLIALLESYQQKDGSVLVPPALQPYLGTDRITTPTHVPLQYIGPNQPQKPRLPGQPASS	soluble
MSLISLQSDQLLEATVGQFMIEADKVAHVQVGNNLEHALLVLTKTGYTAIPVLDPSYRLHGLIGTNMIMNSIFGLERIEFEKLDQITVEEVMLTDIPRLHINDPIMKGFGMVINNGFVCVENDEQVFEGIFTRRVVLKELNKHIRSLNKEGGSHHHHHH	soluble
MSLRKRLTQLFPFLLPVRRIQRKLCFYTKMYLDRNHYAKAKAPEFLPFCIYETKSKLLNENTGMDIKYQENKVFNLRLAAEPVNGLLIRPGETFSFWQRVRYAEKNERYKDGLCVVNDELVTVPGGGLCHLSNLLFWLFLHTPLTIVERHAHEIKDFPSPDEDEPDGVDATIHEGWLDLKVKNDTNLTFQIELSIDGPYIYGRIFMDQAKGYSYEVVNRDKRFLQKEGKIFERVSVCRQVIDNKSKQVISENMLYTDVFEIGYPLPEGTAIAEEGHHHHHH	soluble
MSLLEYLPPGVDTDRFRPDPAARAELRKRYRLGERPTVVCLSRLVPRKGQDTLVTALPSIRRRVDGAALVIVGGGPYLETLRKLAHDCGVADHVTFTGGVATDELPAHHALADVFAMPCRTRGAGMDVEGLGIVFLEASAAGVPVIAGNSGGAPETVQHNKTGLVVDGRSVDRVADAVAELLIDRDRAVAMGAAGREWVTAQWRWDTLAAKLAEGHHHHHH	not soluble
MSLTARIDQLLLERLKSAGVEPAPAADDGEFLRRAYLDLSGTIPPVAITRDYLADSSPAKRRQLIERLLASPAFASHLASTWREIILKPTDDFQQLQNQFALQAWLREQFSENARYDRIVEQFITASSEQDGPVYFYDALDLKPEQLAAETSRIFLGLHIQCAECHDHPFDDWKQRDFWGYAAFFARVAKRDSAMGRISEGHHHHHH	soluble
MAHHHHHHMFRSEAHFRMLANLRFLELQKLLLNRFQIFKNEEITVLKKGSMKTILYEWAEFLTKEQRATNMTHIPDEVLQSKRVADILRDDVECRWLVGRINVGAVSGVSGVSPPSPLSGAHLARDDAALSKVDQLHLDEYPDLFHYEYPQFPYDYYDKKKMSNFYSLMKFPYNDILNISKRIKREVSPPGGDAKEGEMRQMEEPRGGALESAGVDVVDDDFVSYSSNSYVYAPSEMETSKENYHE	not soluble
MEKIKYGFGEIEAAASDIQSTSGRINSLLEDLKAHIRPMAAAWEGESAQAYNEAQQQWDSSAAELNTILSTISNTVRQGNDRMSEVNRMAAASWS	not soluble
MPYAIDFGTTNTVIARWNEATRQGNLIDLPSLSHPLGDSGPLVPSLLYVENAALGQVAIAREVLDRGRDISTDTRFFKNFKRGIGVAVQGFLPQLDGHTLSLETLGQWYLDKLIRILTEQEGQGPDCLALTVPVDSFESYRHWLSHTCRSWGVEEVRLVDEPTAAALGYGVGDASQILVLDFGGGTVDFSWVQLGDRGQKGRSGFLLKWGGILGGSKAEEKSALAKVLAKAGANLGGSDIDYWISEYFTEAQGLQVSPWIRRLAERLKIALGEAEEATEVYFDDQALESYEFQLRRSDLTEILQQRQFFERLTALWEQVQQTAQRRGLTPANLDAVLVVGGTSQLPMVQDWINAQFPAGKIRNQQPFGAIALGALQIYQGREVQDYLYHSYGVRYWNRRKNSHNWHPIIKNGQTYPMAEPIELTLGASLDNQPSIELIVGELGSSIGATEVYFDGNQLITRVLENQAFTVQPLNDRNGARQIAQLSPPGVPGGDRIKVKFWVDDQRYLRLTVEDLLQQKLLLENQVVAQLRLEHHHHHH	not soluble
GKSLKVSSPRPGLLERLSATIQRNLPGHSMLDRQLTTDGKKNQESRFSFSMIKDRIVHFAVSTKLGSVRDSASKHGGEVTFKFAQTKGAFLDQIMKHQDTSGGVCESISAHWISAHAKGESVFNQLYVGGQKGQFHIDSLVSIKQLQMDGLDPYAEQSQITESWLRENGIQPRSPLEVSGETGSKGTKDLLNAILDTGDKGSGYKKISFEGQMAGHTVAAYVDDQKGVTFFDPNFGEFSFPDKTSFSNWFSQDFWSKSMYNKEIGLGQNFYVSNFEP	not soluble
ATVKQPSIGRYTGKPNPSTGKYTVSFIEGDGIGPEISKSVKKIFSAANVPIEWESCDVSPIFVNGLTTIPDPAVQSITKNLVALKGPLATPIGKGHRSLNLTLRKTFGLFANVRPAKSIEGFKTTYENVDLVLIRENTEGEYSGIEHIVCPGVVQSIKLITRDASERVIRYAFEYARAIGRPRVIVVHKSTIQRLADGLFVNVAKELSKEYPDLTLETELIDNSVLKVVTNPSAYTDAVSVCPNLYGDILSDLNSGLSAGSLGLTPSANIGHKISIFEAVHGSAPDIAGQDKANPTALLLSSVMMLNHMGLTNHADQIQNAVLSTIASGPENRTGDLAGTATTSSFTEAVIKRL	soluble
PLENQELTPLFGQPDWFLGILPSQAGNLKVLDTARWVMPERYRDDYRDGLKYVISVQGYEWGLAVHQVSRSIRLDPAEVKWRSQRSQRPWLAGTVIEH	not soluble
GPGSMQRHRTPEPGPRGASSQNPRRPPQTSAKSPARRVSRRSSAATTSAPGGIELTRAQQIEAKAARDAVVGAMTKSSPQAAKMFVESISLDVDVETTRQLLCSKKGFVALPSSIGVLCRQLRKLDLSGNGLTDLSPLATLQHLSNLNVAHNGLLASLKGLSGTCLSVLNISFCAVESLEGLEHTALTLRTFIANDNRLQLHSPLLADVVATAGEDAAEMEAAREHLPESLCRSSSHSGADLRAVAQRNYAIFSTFQQCETVVLSRNTRLCQLFPTWGVEEVAAECGEVPGRSSAAADDEGSDDAADGASTTMSADGDGGDSANRGKKHRASAAKRRDRRRIAVHPTDRSASNTPAAAREPFGDSPEMATYNQRRHALALAHPLSVFERLSRLRKLSLSGCELHSLPVRWFLPMVTELRLAQNHLTSLQPDGVILRSLHILDISNNLFASVASLRRCRYLEQLNVRGNPLIEEGVLQDKAAGLTTAERIADVAATTPSSGTSAAPIAVQQRLLRLFPNMKLLDGQPMMTAGQVRSAYMQRNARSAAERQDKLTEKGCSDGSAIVASLHEARDDVGNAHAASDDSERGSSSGDAPRTAPTARAEARSPARKARRADSAVIAAEADEKDNVVEAPLSVVKTAHAQIVRRERVLLRPGAAAASGSNTGAAGQKRKAGQTPTSPAAVVYGQAAVAKLLEQSRSRSAW	not soluble
MGSDKIHHHHHHMDNAIVTSPSGSSPAEAQAFLDAHPEIEAFDIVLTDANGVGRGKIVRRHELKSIFEGGRHMPISILGLDITGEDVHETGLIWTTGDGDLRAWPIPGTLVPLYGTNPPRGQVLMAMYHLDGQPMSSDPRLALARQVDILAAKGLYPAGAFELEFFLLANERDADGKVQPARAVLDGRVSGKTEVYSVDHLHGMEPLFSDIYAAAKAQGIPAETVISEYAPGQYELTLNYRKDVMRAADDLVMLKRLVRAQARRHGVTACFMAKPIEKYAGSGMHFHVSLQDKAGRNVFAEAGGESWSLPLLQGLGGLIQTMAESMLVFAPHANSWRRFVSQSYAPVAPTWGVNNRSVALRVPAGDAKNRRIEHRPSGVDANPYLIAATVLAGIVKGLDEGLDPGPETTGNGYEAAVTRTTMPADWRAAIEAAKASSFLKGALGEDLHRTFVAIKQSEYLRVARTVSELDYHLYLHEV	not soluble
MSLATEQIQHIAIVGCVHGKYREMYRQLSEYEKSTGKEISFVICTGDMQTLRYEADLVYLKVPPKYKQMGDFHLYYEGKEKAPYLTLFIGGNHESSNVLLHLYNGGFVCFNMYYLGVCSCININGLRIVGVSGIYKSFDEKKPYTYPPSPNDVVSLFHTRNYVIQMLSNLSQSSQIDISLSHDWPQGIVMKGNYKQLYRFQPGFKKDGASLGSPINKVILNTLKPKYWISGHMHCEYHAEEGPTHFIALGKIGYKNAISYLDLPLKQKTDLEYDKDWVCNLIMTWPAFSNKAQFPDLSYSISELLSKRTKELDKKIIELWEKYIGLKIIYDSDTFDIQFTSRRFYIEKIYNELNINEGHHHHHH	soluble
MHVSPFDWRYGSEEIRRLFTNEAIINAYLEVERALVCALEELGVAERGCCEKVNKASVSADEVYRLERETGHDILSLVLLLEQKSGCRYVHYGATSNDIIDTAWALLIRRALAAVKEKARAVGDQLASMARKYKTLEMVGRTHGQWAEPITLGFKFANYYYELYIACRQLALAEEFIRAKIGGAVGTMASWGELGLEVRRRVAERLGLPHHVITTQVAPRESFAVLASALALMAAVFERLAVEIRELSRPEIGEVVEGGGGSSAMPHKANPTASERIVSLARYVRALTHVAFENVALWHERDLTNSANERVWIPEALLALDEILTSALRVLKNVYIDEERITENLQKALPYILTEFHMNRMIKEGASRAEAYKKAKEVKALTFEYQKWPVERLIEDALSLKLC	soluble
EIILNASAMFNHSNAKLALSIDKKLRKVIVTPDMHRVHHSVMVKETHSNFGFFLSVWDRWFGTYRAQPALGHNDVVIGVPEIREASEQRLDKLLTQPFRYREGKGKNVD	not soluble
MNHKVHHHHHHIEGRHMDEYKQVDVGKDGMVATAHPLASEIGADVLKKGGNAIDAAVAIQFALNVTEPMMSGIGGGGFMMVYDGKTKDTTIIDSRERAPAGATPDMFLDENGKAIPFSERVTKGTAVGVPGTLKGLEEALDKWGTRSMKQLITPSIKLAEKGFPIDSVLAEAISDYQEKLSRTAAKDVFLPNGEPLKEGDTLIQKDLAKTFKLIRSKGTDAFYKGKFAKTLSDTVQDFGGSMTEKDLENYDITIDEPIWGDYQGYQIATTPPPSSGGIFLLQMLKILDHFNLSQYDVRSWEKYQLLAETMHLSYADRASYAGDPEFVNVPLKGLLHPDYIKERQQLINLDQVNKKPKAGDPWKYQEGSANYKQVEQPKDKVEGQ	soluble
MGSDKIHHHHHHMQRIAENYDALPRQLKNVATYIEQHRSSVMVDRTSDIAASCGVHPSAVVRFAQRFGFSGFSDLQAVFRQAYTGQGSSSPSYQQRIRKLIDEKPGALSGGSVAREFIAASRGGLEELEAGLDDKQFDAAVKMLQQADNIYVIGVRRSFPVASYIVYALQHTPKRVHLVSGFGGMYREQIRSVKKGDVVIAISFAPYGKETQYCLRVAHHHQARTLVITDSQLSPLARYATTQLYVKEGSAFAFRSLTSTICLCQALFIALAYKLELNVEESKDTGGYDD	not soluble
MGSDKIHHHHHHMKYLPLGSTGLTVSECGFGCIPIIRLPQDEAVRVLRHAFDRGITFFDTANAYRDSEEKMGIAFAGIRHKLVIATKSLLRSAEGVTGHVENSLRKLGTDYLDLYQLHQIAQEKDWAEVTGPSGALEAAMAAKAAGKVRHVGVTSHNLEMALKLVRTGLFDTIQFPFNLIEEGAKDELLGAARDAGMAFICMKPFGGGVIDNAAVAFTYLRSHDGIFPIPGFESCAQVDEVLSFYERDNVVTEQDLAIMEQYRRELGKRFCRRCEYCQPCPQGVMITPAMGYPIVASRMSPAVAAEFCSKAMETVPLCTECGACIARCPYELPISDILKANYAMYRGHVAGSQGGFAGGKSS	not soluble

Reference: the DeepSol protein solubility set
